Molecular target: SRSF1-RBD (UniProt Q07955 1-203)
Test: EMSA

Sequence of SRSF1-RBD (Q07955 1-203): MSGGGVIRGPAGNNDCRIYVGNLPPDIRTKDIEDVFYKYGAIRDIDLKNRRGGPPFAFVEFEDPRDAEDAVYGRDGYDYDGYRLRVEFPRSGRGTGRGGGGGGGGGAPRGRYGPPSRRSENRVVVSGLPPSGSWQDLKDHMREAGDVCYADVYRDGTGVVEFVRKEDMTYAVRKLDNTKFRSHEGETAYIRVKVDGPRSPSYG

B1: AdML pre-mRNA (structured_RNA)
RNA: GAGCUCGGUACCCCGUUCGUCCUCACUCUCUUCCGCAUCGCUGUCUGCGAGGGCCAGCUGUUGGGGUGAGUACUCCCUCUCAAAAGCGGGCAUGACUUCUGCCCUCGAGUUAUUAACCCUCACUAAAGGCAGUAGUCAAGGGUUUCCUUGAAGCUUUCGUGCUGACCCUGUCCCUUUUUUUUCCACAGCUGCAGGUCGACGUUGAGGACAAACUCUUCGCGGUCUUUCCAGUACUCUU
B1: binds.

— publication PMC9371905
